Test [1] has as its target T1, human TF ECD-His6 (human, UniProt P13726 33-251).
T1 construct: Expi293-derived; Biacore used TF-His; also called TF-His; hTF
The experiment in a line: BLI (ForteBio Octet).
Experimental: (§1) Kinetic measurements for the anti-TF antibodies were conducted on an Octet QK384 (Pall ForteBio, Fremont, CA, USA) or a Biacore (GE Healthcare Bio-Sciences).
(§2) Briefly, ForteBio affinity measurements were performed by loading IgGs on-line onto AHC sensors. Sensors were equilibrated off-line in assay buffer for 30 min and then monitored on-line for 60 seconds for baseline establishment. Sensors with loaded IgGs were exposed to 100 nM antigen (human, cynomolgus, or mouse TF) for 3 min, afterwards they were transferred to assay buffer for 3 min for off-rate measurement. Alternatively, binding measurements were obtained by loading biotinylated TF monomer on SA sensors followed by exposure to 100 nM antibody Fab in solution. Kinetic data was analyzed and fitted using a 1:1 Langmuir binding model and the KD was calculated by dividing the koff by the kₒₙ.

In test [2] the target is T2, cynomolgus monkey TF ECD-His6 (cynomolgus monkey (Macaca fascicularis)).
T2 construct: Expi293-derived; also called TF-His; cTF
T2 chain: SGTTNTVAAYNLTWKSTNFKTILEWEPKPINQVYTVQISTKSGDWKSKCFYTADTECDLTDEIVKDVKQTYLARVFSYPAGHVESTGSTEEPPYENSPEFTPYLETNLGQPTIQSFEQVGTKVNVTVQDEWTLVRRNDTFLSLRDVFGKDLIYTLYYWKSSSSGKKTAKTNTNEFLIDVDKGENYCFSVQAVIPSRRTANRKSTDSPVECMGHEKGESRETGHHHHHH
As to the kind of experiment: BLI (ForteBio Octet).
Experimental: as §1, §2

In test [3] the target is T3, pig TF ECD-His (pig (Sus scrofa)).
T3 construct: also called pig TF-His; pTF
T3 chain: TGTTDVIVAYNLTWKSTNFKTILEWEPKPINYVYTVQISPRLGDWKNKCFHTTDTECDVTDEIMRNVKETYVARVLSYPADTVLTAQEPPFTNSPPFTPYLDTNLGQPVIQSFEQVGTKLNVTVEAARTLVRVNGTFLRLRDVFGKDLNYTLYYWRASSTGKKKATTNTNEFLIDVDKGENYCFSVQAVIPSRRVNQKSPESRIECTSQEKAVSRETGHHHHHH
The experiment in a line: SPR (Biacore), antibody captured by anti-human IgG.
Experimental: (§3) For pig TF Biacore-based measurements, a given anti-TF antibody was captured by an anti-human IgG antibody covalently coupled to a CM5 chip (GE Healthcare Bio-Sciences). Association between the anti-TF antibodies and a five-point three-fold titration of pig TF-His starting at 100 nM was measured for 180 to 240 sec. Subsequently, dissociation between the anti-TF antibody and TF-His was measured for 1800 sec. Kinetic data was analyzed and fitted globally using a 1:1 binding model.
(§4) For rabbit TF Biacore-based measurements, a given anti-TF antibody was captured by an anti-human IgG antibody covalently coupled to a CM5 chip (GE Healthcare Bio-Sciences). Association between the anti-TF antibodies and a five-point three-fold titration of rabbit TF-His starting at 100 nM was measured for 180 to 240 sec. Subsequently, dissociation between the anti-TF antibody and TF-His was measured for 1800 sec. Kinetic data was analyzed and fitted globally using a 1:1 binding model.

Test [4] deals with T4, rabbit TF ECD-His (rabbit (Oryctolagus cuniculus), UniProt P24055 33-250).
T4 construct: also called rabbit TF-His
As to the kind of experiment: SPR (Biacore), antibody captured by anti-human IgG.
Experimental: as §3, §4

For test [5], the target named is T5, full-length mouse TF with a C-terminal FLAG tag on Flp-In-CHO cells (mouse, UniProt P20352 29-294).
T5 construct: also called CHO-mTF; mouse TF-positive CHO cells
As to the kind of experiment: flow cytometry, antibody titration on CHO cells expressing mouse TF.
Experimental: (§5) After 2 washes, dead cells were labeled with TO-PRO-3 Iodide (ThermoFisher Scientific) and samples were analyzed on a CytoFLEX flow cytometer (Beckman Coulter, Brea, CA, USA) or Novocyte flow cytometer (ACEA Biosciences, San Diego, CA, USA). The median fluorescence intensities (MFIs) at each dilution were plotted and cell EC₅₀'s were derived using a 4-parameter binding model in Prism (GraphPad, La Jolla, CA, USA).

In test [6] the target is T5, full-length mouse TF with a C-terminal …. The experiment in a line: flow cytometry on CHO cells expressing mouse TF, MFI at 250 nM antibody.
Experimental: as §5
Test [7] addresses T6, human Tissue Factor on human TF-positive cells (human, UniProt P13726 33-295).
T6 construct: also called hTF; CD142
The experiment in a line: flow cytometry, antibody titration on HCT-116 cells (endogenous human TF), 4-parameter fit of MFI.
Experimental: as §5

Test [8] deals with T6, human Tissue Factor on human …. As to the kind of experiment: competition flow cytometry on MDA-MB-231 cells: antibody titration first, then 20 nM FVII-Fc-Alexa488 as the blocked ligand.
Experimental: (§6) After another 1 hr incubation on ice, cells were washed, stained with a viability dye, and analyzed by flow cytometry. The Alexa488 fluorescence data from viable cells was summarized using median fluorescence intensity.
The target of test [9] is T7, pig TF ECD-His (TF-His) protein (pig (Sus scrofa)).
T7 construct: also called pig TF-His; pTF
T7 chain: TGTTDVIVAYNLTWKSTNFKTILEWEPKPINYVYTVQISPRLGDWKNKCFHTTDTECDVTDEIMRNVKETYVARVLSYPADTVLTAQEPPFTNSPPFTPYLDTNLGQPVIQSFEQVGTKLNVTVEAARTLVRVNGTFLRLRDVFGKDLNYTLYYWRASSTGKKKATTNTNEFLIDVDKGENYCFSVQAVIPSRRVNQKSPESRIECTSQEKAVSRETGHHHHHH
The experiment in a line: Biacore; antibody captured by anti-human IgG on CM5 chip, titration of pig TF-His.
Experimental: (§7) The ability of certain antibodies was tested for binding to pig TF. For pig TF Biacore-based measurements, a given anti-TF antibody was captured by an anti-human IgG antibody covalently coupled to a CM5 chip (GE Healthcare Bio-Sciences). Association between the anti-TF antibodies and a five-point three-fold titration of pig TF-His starting at 100 nM was measured for 180 to 240 sec. Subsequently, dissociation between the anti-TF antibody and TF-His was measured for 1800 sec. Kinetic data was analyzed and fitted globally using a 1:1 binding model.

Test [10] addresses T8, rabbit TF ECD-His (TF-His) protein (rabbit (Oryctolagus cuniculus), UniProt P24055 33-250).
T8 construct: also called rabbit TF-His
As to the kind of experiment: Biacore; antibody captured by anti-human IgG on CM5 chip, titration of rabbit TF-His.
Experimental: The ability of certain antibodies was tested for binding to rabbit TF. For rabbit TF Biacore-based measurements, a given anti-TF antibody was captured by an anti-human IgG antibody covalently coupled to a CM5 chip (GE Healthcare Bio-Sciences). Association between the anti-TF antibodies and a five-point three-fold titration of rabbit TF-His starting at 100 nM was measured for 180 to 240 sec. Subsequently, dissociation between the anti-TF antibody and TF-His was measured for 1800 sec. Kinetic data was analyzed and fitted globally using a 1:1 binding model.

For test [11], the target named is T9, pig TF-His (Pig (Sus scrofa)).
T9 construct: also called pig TF ECD-His; pTF
T9 chain: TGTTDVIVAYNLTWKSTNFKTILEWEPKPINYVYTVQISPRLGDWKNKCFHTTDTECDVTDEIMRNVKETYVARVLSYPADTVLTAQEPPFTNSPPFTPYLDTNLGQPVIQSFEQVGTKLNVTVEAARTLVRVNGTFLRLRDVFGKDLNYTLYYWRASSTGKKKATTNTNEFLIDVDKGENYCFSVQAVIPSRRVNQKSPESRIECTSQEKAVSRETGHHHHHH
As to the kind of experiment: Biacore SPR, antibody captured by anti-human IgG on CM5, pig TF-His titrated.
Experimental: as §7

Test [12] addresses T10, rTF (rat TF) construct on HEK293 cells (rat, UniProt P42533 29-252).
T10 construct: not shown: transmembrane/cytoplasmic anchor of the cell-surface construct
The experiment in a line: live cell staining, HEK293 cells.
Target sequence in this assay (P42533 29-252 limits assumed): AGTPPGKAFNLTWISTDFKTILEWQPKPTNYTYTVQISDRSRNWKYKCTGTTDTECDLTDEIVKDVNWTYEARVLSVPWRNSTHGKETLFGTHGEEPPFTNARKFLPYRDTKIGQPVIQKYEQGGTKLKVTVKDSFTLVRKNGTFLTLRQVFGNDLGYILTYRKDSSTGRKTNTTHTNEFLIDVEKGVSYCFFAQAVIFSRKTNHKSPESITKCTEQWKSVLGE

The target of test [13] is T6, human Tissue Factor on human …. As to the kind of experiment: competition flow cytometry on MDA-MB-231 cells: antibody titration first, then 20 nM FVII-Fc-Alexa488 as the blocked ligand. This is another data set of the same source.
The target is the same in test [14]. The experiment in a line: competition flow cytometry on MDA-MB-231 cells: unlabeled antibody titration first, then 20 nM 39A-Alexa488 as the competitor.
Experimental: as §6
The target of test [15] is T11, mouse TF ECD-His6 (mouse, UniProt P20352 29-251).
T11 construct: Expi293-derived; also called TF-His; mTF
The experiment in a line: BLI (ForteBio Octet).
Experimental: as §1, §2

Test [16] deals with T12, hTF_N171H_T197K construct on HEK293 cells (human, UniProt P13726 33-251).
T12 construct: The entry already carries N171H and T197K; not shown: transmembrane/cytoplasmic anchor of the cell-surface construct
T12 chain: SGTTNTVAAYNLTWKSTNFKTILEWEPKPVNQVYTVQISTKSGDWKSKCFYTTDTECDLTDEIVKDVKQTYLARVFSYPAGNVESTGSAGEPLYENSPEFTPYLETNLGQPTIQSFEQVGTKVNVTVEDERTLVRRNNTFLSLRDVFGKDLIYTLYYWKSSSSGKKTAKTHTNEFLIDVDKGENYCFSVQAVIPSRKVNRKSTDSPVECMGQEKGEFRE
As to the kind of experiment: live cell staining, HEK293 cells.

In test [17] the target is T1, human TF ECD-His6. As to the kind of experiment: SPR (Biacore), TF-His over coupled antibody.
Experimental: as §1
(§8) For the Biacore-based measurements, the antibody was covalently coupled to a CM5 or C1 chip using an amine-coupling kit (GE Healthcare Bio-Sciences). Association between the anti-TF antibodies and a five-point three-fold titration of TF-His starting at 25 to 500 nM was measured for 300 sec. Subsequently, dissociation between the anti-TF antibody and TF-His was measured for up to 1800 sec. Kinetic data was analyzed and fitted globally using a 1:1 binding model.
Test [18] concerns the target T2, cynomolgus monkey TF ECD-His6. As to the kind of experiment: SPR (Biacore), TF-His over coupled antibody.
Experimental: as §1, §8
In test [19] the target is T6, human Tissue Factor on human …. The experiment in a line: flow cytometry, antibody titration on A431 cells (human TF), 4-parameter fit of MFI.
Experimental: as §5
Test [20] has the same target. As to the kind of experiment: flow cytometry, antibody titration on MDA-MB-231 cells (human TF), 4-parameter fit of MFI.
Experimental: as §5
Test [21] shares this target. As to the kind of experiment: flow cytometry, titration of unconjugated antibody on HCT-116 cells (human TF), 4-parameter fit of MFI.
Test [22] addresses T10, rTF (rat TF) construct on HEK293 cells. The experiment in a line: flow cytometry (live cell staining), antibody titration 1:3 from 250 nM on HEK293 cells transfected with rTF.
For test [23], the target named is T6, human Tissue Factor on human …. As to the kind of experiment: competition flow cytometry on MDA-MB-231 cells: unlabeled antibody titration first, then 20 nM 25A3-Alexa488 as the competitor.
The target is the same in test [24]. Described as above. This is another data set of the same source.
The target is the same in test [25]. The experiment in a line: competition flow cytometry on MDA-MB-231 cells: unlabeled antibody titration first, then 20 nM 43D7-Alexa488 as the competitor.
Experimental: as §6
Test [26] has as its target T13, r141-194_h chimeric rat-human TF construct on HEK293 cells (rat with human segment, UniProt P42533 29-252).
T13 construct: not shown: transmembrane/cytoplasmic anchor of the cell-surface construct
As to the kind of experiment: flow cytometry (live cell staining), antibody titration 1:3 from 250 nM on HEK293 cells transfected with r141-194_h.

T4 sequence (P24055 other isoform, or with tags, fused parts or gaps): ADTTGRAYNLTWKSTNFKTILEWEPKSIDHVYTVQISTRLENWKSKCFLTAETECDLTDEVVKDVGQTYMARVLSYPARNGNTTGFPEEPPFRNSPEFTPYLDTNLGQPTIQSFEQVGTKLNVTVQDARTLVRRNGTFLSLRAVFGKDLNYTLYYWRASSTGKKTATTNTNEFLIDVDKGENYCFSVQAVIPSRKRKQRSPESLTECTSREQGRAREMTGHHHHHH
T8 sequence (P24055 other isoform, or with tags, fused parts or gaps): as above

B1: 29D (antibody, human IgG1, V domains shown)
VH: QVQLVESGGGVVQPGRSLRLSCAASGFTFHSRGMHWVRQAPGKGLEWVAVITYDGINKYYADSVEGRFTISRDNSKNTLYLQMNSLRAEDTAVYYCARDGVYYGVYDYWGQGTLVTVSS
VL: not shown
notes: Human IgG1; also called antibody designated 29D
With B1, the equilibrium dissociation constant (Kd) in [1] is 3.3 nM; in test [2] it was 12 nM. The results for the binding result in test [3], in test [4] and in test [5] were “no binding (tested: titration starting at 100 nM)”, “no binding (tested: titration starting at 100 nM)” and “no binding (tested: 250 nM)”, respectively. In addition, the “MFI at 250 nM” value in test [6] came out at 30000. For the same molecule, in [7], it took 0.237 nM to reach a half-maximal effect (EC50). Besides, the “IC50 (read off the curve)” value in [8] was around 2 nM.

B2: anti-TF antibody 29D (antibody, human IgG1, V domains shown)
VH: QVQLVESGGGVVQPGRSLRLSCAASGFTFHSRGMHWVRQAPGKGLEWVAVITYDGINKYYADSVEGRFTISRDNSKNTLYLQMNSLRAEDTAVYYCARDGVYYGVYDYWGQGTLVTVSS
VL: not shown
notes: Human IgG1
B2: the binding result in test [9] and in [10] was “no binding” each time.

B3: 29D (antibody, V domains shown)
VH: QVQLVESGGGVVQPGRSLRLSCAASGFTFHSRGMHWVRQAPGKGLEWVAVITYDGINKYYADSVEGRFTISRDNSKNTLYLQMNSLRAEDTAVYYCARDGVYYGVYDYWGQGTLVTVSS
VL: not shown
notes: Human IgG (captured by anti-human IgG in the Biacore assay); also called antibody designated 29D
B3: the binding result in test [11] is “no binding”.

B4: TF-011 (antibody, V domains shown)
VH: EVQLLESGGGLVQPGGSLRLSCAASGFTFSNYAMSWVRQAPGKGLEWVSSISGSGDYTYYTDSVKGRFTISRDNSKNTLYLQMNSLRAEDTAVYYCARSPWGYYLDSWGQGTLVTVSS
VL: DIQMTQSPPSLSASAGDRVTITCRASQGISSRLAWYQQKPEKAPKSLIYAASSLQSGVPSRFSGSGSGTDFTLTISSLQPEDFATYYCQQYNSYPYTFGQGTKLEIK
notes: Previously described anti-TF antibody; also called tisotumab
For B4, the binding result in test [12] was “no binding”. In addition, the IC50 was 1.01 nM in test [13] and 0.61 nM in test [14].

B5: 25A3 (antibody, human IgG1, V domains shown)
VH: QVQLVQSGAEVKKPGASVKVSCKASGYTFDVYGISWVRQAPGQGLEWMGWIAPYSGNTNYAQKLQGRVTMTTDTSTSTAYMELRSLRSDDTAVYYCARDAGTYSPFGYGMDVWGQGTTVTVSS
VL: DIQMTQSPSTLSASVGDRVTITCQASQSINNWLAWYQQKPGKAPKLLIYKAYNLESGVPSRFSGSGSGTEFTLTISSLQPDDFATYYCQLFQSLPPFTFGGGTKVEIK
notes: Human IgG1; also called antibody designated 25A3
On to B5, for which the dissociation constant Kd was 1.67 nM in [1]; 1.36 nM in test [2]; 131 nM in test [15]; 0.36 nM in test [17]; 0.21 nM in test [18]. Further, the binding result is reported as “no binding (tested: 15 ug/ml (100 nM); below 50% of hTF)” in test [16] and “no binding (tested: 250 nM)” in test [22]. In addition, the “MFI at 250 nM” value in test [6] was determined as 5.8e+06. Also, the concentration giving a half-maximal response (EC50) in test [19] came to 0.5 nM; in [20] it was 0.17 nM; in test [7], 0.077 nM; in test [21] it was 0.16 nM. The IC50 came to 1.13 nM in [23], 1.03 nM in test [24] and 0.84 nM in test [25].

B6: 1G (antibody, human IgG1, V domains shown)
VH: EVQLLESGGGLVQPGGSLRLSCAASGFTFSSYAMAWVRQAPGKGLEWVSAISGSGGLTYYADSVKGRFTISRDNSKNTLYLQMNSLRAEDTAVYYCAKAPYGYYMDVWGKGTTVTVSS
VL: not shown
notes: Human IgG1; also called antibody designated 1G
Regarding B6, the equilibrium dissociation constant (Kd) in [1] was 2.2 nM; in test [2], 2.7 nM. In addition, the binding result in test [3] is given as “no binding (tested: titration starting at 100 nM)”; in [4] it was “no binding (tested: titration starting at 100 nM)”; in [5] it was “no binding (tested: 250 nM)”. Moreover, the “MFI at 250 nM” value in test [6] was determined as 4300. Further, in test [7], the EC50 amounted to 0.058 nM. Besides, the “IC50 (read off the curve)” value in test [8] was around 1 nM.

B7: 1G (antibody, V domains shown)
VH: EVQLLESGGGLVQPGGSLRLSCAASGFTFSSYAMAWVRQAPGKGLEWVSAISGSGGLTYYADSVKGRFTISRDNSKNTLYLQMNSLRAEDTAVYYCAKAPYGYYMDVWGKGTTVTVSS
VL: not shown
notes: Human IgG (captured by anti-human IgG in the Biacore assay); also called antibody designated 1G
Regarding B7, the binding result in [11] was “no binding”.

B8: anti-TF antibody 1G (antibody, human IgG1, V domains shown)
VH: EVQLLESGGGLVQPGGSLRLSCAASGFTFSSYAMAWVRQAPGKGLEWVSAISGSGGLTYYADSVKGRFTISRDNSKNTLYLQMNSLRAEDTAVYYCAKAPYGYYMDVWGKGTTVTVSS
VL: not shown
notes: Human IgG1
With B8, the binding result in test [9] and in [10] was “no binding” each time.

B9: 10H10 (M1593) (antibody, V domains shown)
VH: EVQLVQSGAEVKKPGESLRISCKGSGYTFAPYWIEWVRQMPGKGLEWMGDILPGTGFTTYSPSFQGHVTISADKSISTAYLQWSSLKASDTAMYYCARSGYYGNSGFAYWGQGTLVTVSS
VL: DIVMTQTPLSLPVTPGEPASISCKSSQSLLSSGNQKNYLTWYLQKPGQSPQLLIYWASTRESGVPDRFSGSGSGTDFTLKISRVEAEDVGVYYCQNDYTYPLTFGQGTKLEIK
notes: also called anti-TF M1593
As to B9, the binding result in test [22] and in test [26] was “no binding (tested: 250 nM)” in each case.

For the origin of these results see patent publication US20250361322A1 (ICONIC THERAPEUTICS, published 2025).
